Literature values in article PMC3968163.

Target: p53 TAD (Homo sapiens) (UniProt P04637)
Assay: ITC

p53 TAD (Homo sapiens), sequence (P04637 20-73): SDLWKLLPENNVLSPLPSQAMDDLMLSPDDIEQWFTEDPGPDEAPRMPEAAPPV
Tfb1 PH, sequence (P32776 1-115): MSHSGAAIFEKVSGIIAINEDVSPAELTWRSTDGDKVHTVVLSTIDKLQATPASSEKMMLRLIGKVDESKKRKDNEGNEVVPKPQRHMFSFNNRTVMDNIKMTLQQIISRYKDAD

Tfb1 PH (from UniProt P32776)
Kd: 400 nM
